Measurements: the nanobody polyreactivity screen of Harvey et al. (2022)

experiment: yeast display, Sf9 membrane polyspecificity reagent, FACS + sequencing; frameworks hold sequencing errors
Method in brief: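 Genes from sorted yeast were amplified by colony PCR, read by MiSeq 2 × 250 sequencing and filtered on CDR length. These cells carried a synthetic nanobody library in Saccharomyces cerevisiae BJ5465 and were sorted by FACS into low and high (top ~1%) gates on anti-HA and streptavidin fluorescence. Polyreactivity is labelled according to the gate of origin.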

Sequence	polyreactivity (PSR sort gate)
QVQLVESGGGLVQAGGSLRLSCAASGSTFAYNALGWYRQAPGKERELVAAIDINDGNTYYADSVKGRFTISRDTAKNTVNLQINSLKPEDTAVYYCAAEYFYPYYGAMDYWGQGTQVTVSS	low polyreactivity
QVQLVESGGGLVQAGGSLRLSCAASGSTFAYNAMGWYRQAPGKERELVAAIDINDGNTYYADSVKGRFTISRDNAKNTVYLQMNSLNPEDTAVYYCAAEGPYYLGLDGVKDDYWGQGTQVTVSS	low polyreactivity
QVQLVESGGGLVQAGGSLRLSCAASGSTFAYNAMGWYRQAPGKERELVAAISWGDGITYYADSVKGRFTISRDNAKNTVYLQMNSLKPEDTEVITRDFGYWGQGTQVTVSS	low polyreactivity
QVQLVESGGGLVQAGGSLRLSCAASGSTFAYNAMGWYRQAPGKERELVARISSSGDITYYADSVKGRFTISRDNAKNTVYLQMNSLKPEDTAVYYCAKRYLTRYKGYYYWGQGTQVTVSS	high polyreactivity
QVQLVESGGGLVQAGGSLRLSCAASGSTFAYNAMGWYRQAPGKERELVASITVSVGSTYYADSVKGRFTISRDNAKNTVYLQMNSLKPEDTAVYYCAARVTRRSSTYWVPRTGYYYWGQGTQVTVSS	low polyreactivity
QVQLVESGGGLVQAGGSLRLSCAASGSTFAYNDMGWYRQAPWKERDLVADIRSGGNTNYADSVKGRFTISRDNAKNTVYLQMNILKPEDTAVYYCASDGYRIDVYHPDYRYDYWGQGTQVTVSS	low polyreactivity
QVQLVESGGGLVQAGGSLRLSCAASGSTFAYYAMGWYRHAPGKERELVAAISSGGSTYYADSVKGRFTISRDNAKNTVYLQMNSLKPEDTEVYYCNKLWVGKFKRYEFGYWGQGSQVTVSS	low polyreactivity
QVQLVESGGGLVQAGGSLRLSCAASGSTFAYYAMGWYRQAPGKERELVAAISRTGGSTYYADSVKGRFTISRDNAKNTVYLQMNSLKPEDNAVYYCNARGPVGTFDYDYWGQGTQVTVSS	low polyreactivity
QVQLVESGGGLVQAGGSLRLSCAASGSTFAYYAMGWYRQAPGKERELVAAITWSGGRTYYADSVKGRFTISRDNAKNTVYLQMNSLKPEDTAVYYCAAGQQHSLFRVPQYRNRAFYYWGQGTQVTVSS	high polyreactivity
QVQLVESGGGLVQAGGSLRLSCAASGSTFAYYAMGWYRQAPGKERELVARITASGGRTYYADSVKGRFTISRDNAKNTVYLQMNSLKPEDTAVYYCAKGRYVEVSYGAHYDYWGQGTQVTVSS	low polyreactivity
QVQLVESGGGLVQAGGSLRLSCAASGSTFAYYAMGWYRQAPGKERELVAVISVRGGSTYYADSVKGRFTISRDNAKNTVYLQMNSLKPEDTAVYYCAADTFAGYYYWGQGTQVTVSS	high polyreactivity
QVQLVESGGGLVQAGGSLRLSCAASGSTFAYYTMGWYREAPGKERELVAAISKSGGSTTYADSVKGRFTISRDNAKNTVYLQMNSLKPEDTAVYYCAAYDRVENYNYWGQGTQVTVSS	high polyreactivity
QVQLVESGGGLVQAGGSLRLSCAASGSTFAYYTMGWYRPGPGKEREMVAAIRGGGRTYYADSVKGRFTISRDNAKNTVYLQMNSLKPEDTAVYYCAATVYVTKGYGYWGQGTQVTVSS	high polyreactivity
QVQLVESGGGLVQAGGSLRLSCAASGSTFAYYTMGWYRQAPGKERELVAAISRRGGSTYYADSVKGRFTISRDNAKNTVYLQMNSLKPEDTAVYYCAASFKGPGYYRYYYWGQGTQVTVSS	high polyreactivity
QVQLVESGGGLVQAGGSLRLSCAASGSTFAYYTRGWYRQAPGKERELVAAITSGGRTSYADSVKGRFTISRDNAKNSVYLQMNSLKPEDTAVYYCAKGRKPGYYYWGQGTQVTVSS	high polyreactivity
QVQLVESGGGLVQAGGSLRLSCAASGSTFAYYVMGWYRQAPGKERELVAAITGTGGSTYYADSVKGRFTISRDNAKNTVYLQLNSLKPEDTAVYYCAAETPIYYGYWYDSWGQGTQVTVSS	high polyreactivity
QVQLVESGGGLVQAGGSLRLSCAASGSTFCTYAMGWYRQAPGKERELVAAITQRGASTYYADSVKGRFTISRDNAKNTVYLQMNSLKPEDTAVYYCAAYKRGRPEMDYWGQGTQVSVSS	high polyreactivity
